Biological target: MBP-mCherry-YY1 (Homo sapiens, UniProt P25490 1-414)
Assay: EMSA; 10 uM Zn2+, 100 mM KCl, no polyP; 2 uM protein, 25 nM probe; Motif EMSA: 10 mM Tris pH 7.5, 50 mM KCl, DTT, Tween 20, 5 mM MgCl2, ~25 nM probe, room temperature 30 min; G4 EMSA: 10 mM Tris-HCl pH 7.5, 100 mM KCl, 10 uM Zn, 1 mM DTT, 3% glycerol, room temperature 30 min; anisotropy: same without glycerol, on ice 30 min
Settings: protein: recombinant; tags: N-MBP-TEV, C-mCherry; label: 5' IRDye 700 on strand 1; G4 as stated by authors, annealed with S4 in 100 mM KCl; S3/S4 otherwise pair with mismatches

Sequence of MBP-mCherry-YY1 (P25490 whole entry): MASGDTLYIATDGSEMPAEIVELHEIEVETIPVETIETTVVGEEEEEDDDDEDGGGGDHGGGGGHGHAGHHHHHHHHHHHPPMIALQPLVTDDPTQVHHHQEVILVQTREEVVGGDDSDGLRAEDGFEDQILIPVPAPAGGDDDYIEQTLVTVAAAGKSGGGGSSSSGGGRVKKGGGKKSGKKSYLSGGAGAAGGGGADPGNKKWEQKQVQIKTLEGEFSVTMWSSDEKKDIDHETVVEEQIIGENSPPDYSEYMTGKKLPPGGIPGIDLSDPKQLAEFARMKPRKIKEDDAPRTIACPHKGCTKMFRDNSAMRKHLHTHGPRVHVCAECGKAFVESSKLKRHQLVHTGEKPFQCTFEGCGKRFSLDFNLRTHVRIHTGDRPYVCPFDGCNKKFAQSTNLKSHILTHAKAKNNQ

B1: human telomere G4 (hTEL) probe (structured_DNA)
DNA 1: AAAGGGTTAGTGTTAGTGTTAGGGAA
DNA 2: TTCCCTAACCCTAACCCTAACCCTTT
binding result: binds

From article PMC13202173, “Polyphosphate as a novel regulator of super-enhancer complexes: disruption of phase separation and gene expression”
